Results published in US20100298541A1 (published 2010).

Target: T1, TRAIL-R2/Fc fusion protein (R & D Systems) (UniProt O14763 54-182, limits assumed)
T1 construct: not shown: Fc part of the bought fusion; captured with anti-human IgG Fc antibody
Assay: biosensor, TRAIL-R2-Fc fusion protein immobilized; mono-, bi- and tetravalent D1 constructs injected
Procedure: FIG. 19. Binding affinity of Tn3 monomers and multimers. Depicted in this panel are sensorgrams from a Biosensor binding experiment using mono-, bi- and tetravalent 1C12 and D1 Tn3 constructs. TRAIL-R2-Fc fusion protein was immobilized on a sensor chip while sample proteins were injected over the chip. “tetra” refers to the tetravalent Cκ/IGHG1 fusion constructs.
A qualitative comparison of binding by monomeric 1C12, 1C12-Fc and 1C12-Cκ/1C12-IGHG1 proteins was performed by injecting samples of each of these proteins over a TRAIL-R2 chip on an Attana biosensor instrument.

T1 sequence (O14763 54-182 limits assumed): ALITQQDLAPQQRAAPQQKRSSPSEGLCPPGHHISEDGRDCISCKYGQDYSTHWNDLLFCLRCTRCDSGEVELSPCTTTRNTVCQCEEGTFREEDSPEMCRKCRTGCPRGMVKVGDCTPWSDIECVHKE

B1: D1 (designed binder)
chain: IEVKDVTDTTALITWSPGERIWMFTGCELTYGIKDVPGDRTTIDLTEDENQYSIGNLKPDTEYEVSLICPNYERISNPAKETFTT
  binding result: no binding
